The assay addresses human glyceraldehyde 3-phosphate dehydrogenase (GAPDH) (human) (UniProt P04406). Put plainly: cryo-EM structure.

Sequence of human glyceraldehyde 3-phosphate dehydrogenase (GAPDH), P04406 1-335 (enzyme; other documents disagree on this pair) (P04406 whole entry): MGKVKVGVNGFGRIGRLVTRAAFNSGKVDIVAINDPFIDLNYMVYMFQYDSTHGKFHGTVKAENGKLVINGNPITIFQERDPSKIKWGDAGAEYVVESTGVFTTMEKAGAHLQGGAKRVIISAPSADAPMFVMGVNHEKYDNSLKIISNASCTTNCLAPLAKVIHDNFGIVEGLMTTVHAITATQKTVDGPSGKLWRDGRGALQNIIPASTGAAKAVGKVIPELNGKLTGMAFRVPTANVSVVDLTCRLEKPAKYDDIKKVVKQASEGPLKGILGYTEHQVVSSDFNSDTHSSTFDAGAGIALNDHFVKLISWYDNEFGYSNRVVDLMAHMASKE

“human glyceraldehyde 3-phosphate dehydrogenase (GAPDH), P04406 1-335 (enzyme; other documents disagree on this pair)” returned a stoichiometry N of 4.

The term stoichiometry N denotes a count of units in the complex or per binding partner.

These data come from paper doi:10.1101/2021.11.17.468963.
